From patent US9481871B2, “Nucleic acid encoding a polpeptide having aminotransferase activity, vectors and host cells comprising the nucleic acid” (KANEKA CORPORATION, priority 2010, dated 2016)

Test: Activity for 1-benzyl-3-pyrrolidinone and optical purity of generated (S)-1-benzyl-3-aminopyrrolidine
Type: biochemical
Conditions: 57 mM 1-benzyl-3-pyrrolidinone, 57 mM (S)-1-phenethylamine, pH 7.0, 30° C., 2 hours, cell-free extract
Procedure: (Method for Determination of Activity for 1-benzyl-3-pyrrolidinone and Method for Measurement of Optical Purity of Generated (S)-1-benzyl-3-aminopyrrolidine)
Activity to catalyze transamination by acting on optically active (S)-1-phenethylamine and 1-benzyl-3-pyrrolidinone, so as to generate acetophenone and (S)-1-benzyl-3-aminopyrrolidine was examined. Each reagent was added to each cell-free extract obtained in Example 5 so that the final concentrations were as specified in the following composition of the substrate solution. After 2 hours of reaction at 30° C., the reaction solution was analyzed by HPLC under the following conditions.
[Composition of Substrate Solution]
[High Performance Liquid Chromatography Analysis Conditions] <Quantitative Analysis> • Column: Finepak SIL C18-T (JASCO Corporation) • Eluent: distilled water 945 mL/acetonitrile 555 mL/KH2PO4 7.5 g/SDS 2.16 g (adjusted with H3PO4 to pH 3.6) • Flow rate: 1 mL/minute • Detection: 254 nm • Column temperature: 40° C. <Analysis of Optical Purity> […]

B1: TAT: polypeptide having transamination activity from Arthrobacter sp. KNK04-25; amino acid sequence SEQ ID NO: 1 (protein, listed as Arthrobacter sp.)
chain: MSAITLESSLATFTRRFDVSAKLTELGKEVVPGGYSRNSFNFGPHAIYVESGDGAYISTVEGHRLLDLNNNFTVNVLGHNHPSVQRTLRGSIETGVSFGNPVALETELAQLLVERIPSIERVQFSCSASESCMSAVRVARAFTGRTKIAKFEGGYHGFTDPLQVSWHPDHDGDCGPDDAPKAIPDSGGIPAEDVANVVVLTQNDGEGTERILRAHASEIACVIVELESASGGLVTLEQDYVESLRELTSELGIVLIFDETVTLRAGYQGMQGDYGVAPDLTVMGKIIGGGFPLGAVGGSAEIMSVLESGLVSISGTHHGHKIALAAGISTMRELTQGAFDRLNGMATRVMEELNDWSSQRGSSFAVYGKGISHLAYGFMREPGLSIRTHRDYWRNFDGTGTQICSLELANRGFFPVARGDFSLSLPMSDDDITAFVETTKEIVTGIES
  conversion rate to (S)-1-benzyl-3-aminopyrrolidine: 100%
  optical purity of generated (S)-1-benzyl-3-aminopyrrolidine: 100 % e.e.
